From patent publication US20250034594A1, “RNA-GUIDED GENOME RECOMBINEERING AT KILOBASE SCALE” (THE BOARD OF TRUSTEES OF THE LELAND STANFORD JUNIOR …, priority 2021, published 2025) come the findings set out here.

Common to all, as to format: cell-based
One assay has as its system gene editing with Cas9. As to the kind of experiment: Screen of 322 new SSAP proteins, gene editing activity with Cas9 (Table 5). Also on record: Cas9 with SSAP activity: scale not given here. The method in brief:
(§1)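 First, 322 new single-strand annealing proteins are identified from sequences. Next they are synthesized. Finally each is assayed for editing in combination with Cas9 and, separately, dCas9.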

In another assay the test system is gene editing with dCas9. As to the kind of experiment: Screen of 322 new SSAP proteins, gene editing activity with dCas9 (Table 5). Set-up: dCas9 with SSAP activity: scale not given here. The method in brief:
as §1

In assay [1] the test system is gene editing with Cas9 and dCas9. Put plainly: Screen of 322 new SSAP proteins, activity across all experiments (Cas9 and dCas9, Table 5). Also on record: scale not given here. The method in brief:
as §1

B1: SSAP_122: SEQ ID NO: 291; Clostridium transplantifaecale (protein)
chain: TDVKEELARKAGNTGKQEIRLNKNMSIPDMVKVLEPEIKRALPSVLTPERFTRMALSAINNTPKLAECSPMSFIAALMNAAQLGLEPNTPLGQAYLIPYKNKNQLECQFQIGYKGYIDLAYRTGQVQMIQAQAVHEFDYFEYEYGLTPKLVHRPGEGERGEITYFYGLFKMINGGFGFEVMNRAAMDAFAKQYSQSINSKYSPWNSQYEEMAKKTIIKKALKYGPVKSDFQKAISMDESIKTELSIDMSEVRNEDLIDGEFEEAA
modifications: Clostridium transplantifaecale
As to B1, in the assay with gene editing with Cas9, the “Cas9 with SSAP activity” value is 1.429 and the “Cas9 with SSAP activity (normalized)” value came out at 0.558. In the assay on gene editing with dCas9, the “dCas9 with SSAP activity” value is reported as −1.142 and the “dCas9 with SSAP activity (normalized)” value is −0.148. Besides, the “Activity across all experiments” value in assay [1] is listed as 0.144.

B2: SSAP_159: SEQ ID NO: 328; Clostridium hathewayi CAG: 224 (protein, listed as Clostridium hathewayi)
chain: ANDIRGELARRASGTETQAVKLTKNMSIPDMIKALEPEIKRALPTILTPERFTRIALSAINNTPKLAECSPMSFIAALMNAAQLGLEPNTPLGQAFLIPYKVKGSLECQFQIGYRGMIDLAYRNERVQSIEAHTVYENDVFEYELGLNPRLVHIPTMEEPGDPIAFYGIFRLDNGGFRFEVMNKNAIDAYAARYSKAYDSASSPWKNNYESMACKTVLKQLLKYSPMKSEFQKAVSMDESVKTELSVDMSEVQNVNLIEETQEDAA
For the molecule B2, in the assay with gene editing with Cas9, the “Cas9 with SSAP activity” value came out at 1.622 and the “Cas9 with SSAP activity (normalized)” value is listed as 2.756. In the assay with gene editing with dCas9, the “dCas9 with SSAP activity” value is listed as −1.156 and the “dCas9 with SSAP activity (normalized)” value is −0.358. Moreover, in assay [1], the “Activity across all experiments” value was 0.233.

B3: SSAP_268: SEQ ID NO: 437; Oceanobacillus sp. E9 (protein, listed as Oceanobacillus sp.)
chain: ATNDSLKNQLSSKQGNQNTPSGYTIKQLMGAESVKKRFEEMLDSKASQFMASVINLVNGDTNLQKCDQMSVVSSAMVAATLDLPIDRNLGYAWVIPYGNQATFQLGYKGYIQLALRSGQYRNINVIEVYEGELQSFNRLTEEIELDFEKRTSDKVIGYTGFFELINGFRKTVYWSKAEIEKHKNKFSKSGFGWKNDWDAMAKKTVVRNMLNKWGILSIDMQKAYVEETKDPSEPNGEVIDLNLTEDELTAAQEQFSDENANE
For B3, in the assay on gene editing with Cas9, the “Cas9 with SSAP activity” value was −0.160 and the “Cas9 with SSAP activity (normalized)” value is listed as −0.383. Further, in the assay on gene editing with dCas9, the “dCas9 with SSAP activity” value is −1.151 and the “dCas9 with SSAP activity (normalized)” value was −0.400. Also, the “Activity across all experiments” value in assay [1] was −0.656.

B4: SSAP_17: SEQ ID NO: 186 (protein)
chain: ATNDELKNQLANKQNGGQVASAQSLDLKGLLEAPTMRKKFEKVLDKKAPQFLTSLLNLYNGDDYLQKTDPMTVVTSAMVAATLDLPIDKNLGYAWIVPYKGRAQFQLGYKGYIQLALRTGQYKSINVIEVRDGELLKWNRLTEEIELDLDNNTSEKVIGYCGYFQLINGFEKTVYWTRKEIEAHKKKFSKSDFGWKKDYDAMAKKTVLRNMLSKWGILSIDMQTAVTEDEAEPRERKDVTEDESIPDIIDAPITPSDTLEAGSEVQGSMI
In the case of B4, in the assay with gene editing with Cas9, the “Cas9 with SSAP activity” value is recorded as −0.287 and the “Cas9 with SSAP activity (normalized)” value is −0.195. Further, in the assay with gene editing with dCas9, the “dCas9 with SSAP activity” value is recorded as −1.088 and the “dCas9 with SSAP activity (normalized)” value is listed as −0.491. For the same molecule, the “Activity across all experiments” value in assay [1] is −0.687.

B5: SSAP_214: SEQ ID NO: 383; Clostridium tunisiense (protein)
chain: TTKANVTSVKNALKEQIQVQQVAAQTDTSFQGVLTKQLQHQFKAIQSLVPKHVTPERLCRIGINAASRNPQLMNCTPETIVGAIVNCATLGLEPNLLGHAYIVPFYNNKTGKMEAQFQVGYKGALDLIRRTGAVSTLSAHEVYGPRSIFWTQYFY
modifications: Clostridium tunisiense
For the molecule B5, in the assay with gene editing with Cas9, the “Cas9 with SSAP activity” value is listed as −0.428 and the “Cas9 with SSAP activity (normalized)” value was −0.545. Besides, in the assay on gene editing with dCas9, the “dCas9 with SSAP activity” value was −1.088 and the “dCas9 with SSAP activity (normalized)” value is −1.120. Besides, in assay [1], the “Activity across all experiments” value is given as −0.758.

B6: SSAP_134: SEQ ID NO: 303; Andreesenia angusta (protein, listed as Andreesenia angusta)
chain: SNLKNQLANKAGGTATKKQPQTMQDWIKVMEPQIKKALPSVITAERFTRMALTAISTNPKLAECTPESFMGALMNAAQLGLEPNTPLGQAYLIPYGKSVQFQVGYKGLMELAQRSGQFKSIYAHTVYENDEFEVEYGLTQNIVHKPNFDDRGKPIGFYAVYKLTNGGENFVFMTQREVEEFGKAKSKTFNNGPWKTDFEAMAKKTVLKQLLKYAPIKVEFQREIAQDATIKTEIAEDMTEVPEEMVEAEYEVVEQNTMAEDADLKGTPFETK
As to B6, in the assay with gene editing with Cas9, the “Cas9 with SSAP activity” value is recorded as −1.284 and the “Cas9 with SSAP activity (normalized)” value is reported as −1.104. For the same molecule, in the assay on gene editing with dCas9, the “dCas9 with SSAP activity” value is reported as −1.053 and the “dCas9 with SSAP activity (normalized)” value is −0.424. The “Activity across all experiments” value in assay [1] is −1.168.

B7: SSAP_59: SEQ ID NO: 228 (protein)
chain: SEIQQQAEAQTQAHPTAVLDDYRGAIASVAPPGTNIDLFIRMTKSNVNRSDEIVAAVKRNPGLFMQAVMDSAALGHIPGSEYYYLTPRRDGISGIESWKGVAKRIFNTGRYQRIVCEVVYEGEQWEFQPGEDLKPKHVIDWDARQVGSKVRFTYAYAVDFEGNPSTVAVCTKLDLDKAQKQSRGKVWDQWYEQMAKKTAIKRLEDFVDTSAVDLRADGSSRRHSAEVAE
B7: in the assay on gene editing with Cas9, the “Cas9 with SSAP activity” value was found to be 0.218 and the “Cas9 with SSAP activity (normalized)” value came out at 0.538. Further, in the assay with gene editing with dCas9, the “dCas9 with SSAP activity” value is recorded as −1.201 and the “dCas9 with SSAP activity (normalized)” value was −0.336. Moreover, in assay [1], the “Activity across all experiments” value is −0.491.

B8: SSAP_119: SEQ ID NO: 288; Bacillus albus (protein, listed as Bacillus albus)
chain: ATNEKLKNQLANRKESAPATPEQTVEAYMKKMAPKMAEVLPKHMDMGRMSRMALTTMRTSPKLLNCTVSSLMGAVMQAVQLGLEPGLLGHCYILPYKGEATFIIGYKGMIDLARRSGHIQSIYAHAVHENDEFDYELGLHPKLEHKPVHGDRGAFVGAYAVAHFKDGGYQMEFMPKSEIEKRRKRSASANSSFSPWKSDYEEMAKKTVIRYIFKYLPISIEVQLLAAQDEVVRKDITEEPEFIEADPIDVEQPTTEGDGQQEFSIEE
Consider B8, for which, in the assay with gene editing with Cas9, the “Cas9 with SSAP activity” value is reported as −0.911 and the “Cas9 with SSAP activity (normalized)” value is listed as −3.635. In the assay on gene editing with dCas9, the “dCas9 with SSAP activity” value is on record as −1.189 and the “dCas9 with SSAP activity (normalized)” value was −0.361. In assay [1], the “Activity across all experiments” value is on record as −1.050.

B9: SSAP_151: SEQ ID NO: 320; Mammaliicoccus (protein, listed as Mammaliicoccus sp.)
chain: ATNESIKNQVASRKKNEVQNKSPKTQLNDLLIKMGPEIQRALPKHMDADRMARIAMTAVSTTPKLLECDQMSFIGALMQASQLGVEPNTGLGQAYLIPYGGKVQFQLSYKGLIDLATRSGQYKAIYAHEVFPNDEFNYQYGLFKNLEHIPSQEPEGEPIGYYAVYHLKNGGYDFVYWTRERVDKHAKDFSQAVQKGWTSPWKTNYDAMAKKTVLKEVLKYAPKSIEMNKAVNSDSTIKDEINEDMSSVIDITDYEEVNDQQEEKKEESK
Turning to B9, in the assay with gene editing with Cas9, the “Cas9 with SSAP activity” value was −4.713 and the “Cas9 with SSAP activity (normalized)” value is given as −0.683. In the assay on gene editing with dCas9, the “dCas9 with SSAP activity” value is listed as −1.257 and the “dCas9 with SSAP activity (normalized)” value is listed as −0.422. For the same molecule, in assay [1], the “Activity across all experiments” value is −2.985.

B10: SSAP_141: SEQ ID NO: 310; Hungatella hathewayi (protein, listed as Hungatella hathewayi)
chain: RRDRNVTAVKQELEKKAAGTSQAVKLTKNMTIVDMVKALEPEIKRALPSILTPERFTRMALSAINNTPKLAECTPMSFIAALMNAAQLGLEPNTPLGQAYLIPYKNKGVLECQFQLGYRGMIDLAYRNERMQSIEAQTVYEHDEFFYELGLHPALVHRPTFEDRGEIRAFYAIFRLDNGGYRFEVMSKSYVDAYAMRYSKAFTSEFSPWKSNYEGMAKKTVIKQLLKYAPVKSEFQKAITLDETVKTELSVDMSEVQNEDLSETLTAESAA
As to B10, in the assay on gene editing with Cas9, the “Cas9 with SSAP activity” value is −2.047 and the “Cas9 with SSAP activity (normalized)” value is reported as −0.694. In the assay with gene editing with dCas9, the “dCas9 with SSAP activity” value was −1.179 and the “dCas9 with SSAP activity (normalized)” value is recorded as −0.244. Besides, the “Activity across all experiments” value in assay [1] is on record as −1.613.

B11: SSAP_307: SEQ ID NO: 476; Acetobacterium dehalogenans (protein)
chain: CLRSWTRSFSNSVPLKIRFRLLYTAFLSQGSPLSSVNTTQSADKGSPIFFYAMFKTKDGGYGFEVMSVEDVRAHAKKYSQSFSSAYSPWSKNFEEMAKKTVLKKALKYAPLKSDFVRGIVVDETIKREISEDMYAAPSIEIEYEVDEDGVIQDEPTSNELTEAEK
modifications: Acetobacterium dehalogenans
Consider B11, for which, in the assay with gene editing with Cas9, the “Cas9 with SSAP activity” value is −1.090 and the “Cas9 with SSAP activity (normalized)” value is reported as −2.185. Besides, in the assay with gene editing with dCas9, the “dCas9 with SSAP activity” value is listed as −1.100 and the “dCas9 with SSAP activity (normalized)” value is on record as −0.907. The “Activity across all experiments” value in assay [1] is on record as −1.095.

B12: SSAP_278: SEQ ID NO: 447; Paraliobacillus ryukyuensis (protein, listed as Paraliobacillus ryukyuensis)
chain: ATNDTLKNQISNKKNNQVAEGKQGTTMKGLLNSPAVMKRFEEVLGKRANQFTASILSLYNNEKTLQKSEPMSVISSAMIAATLDLPIDKNLGYAWIVPYGNKAQFQLGYKGYIQLALRTGQYRNINVIEVYEGELVKWNRLTEELELDFEQKKSDKVIGYTGYFELINGFRKTVYWSKADIEKHKQKFSKSNFGWSNDWDAMAKKTVIRNMLNKWGILSIDMQKAYSTDEIEQEQESNDFIDGEWAEVSEDDITEAMNEV
For B12, in the assay on gene editing with Cas9, the “Cas9 with SSAP activity” value is reported as 1.070 and the “Cas9 with SSAP activity (normalized)” value is given as 2.231. Also, in the assay with gene editing with dCas9, the “dCas9 with SSAP activity” value is −1.129 and the “dCas9 with SSAP activity (normalized)” value was −1.000. In addition, the “Activity across all experiments” value in assay [1] is −0.030.
